Source: article PMC7884425, “HPF1 remodels the active site of PARP1 to enable the serine ADP-ribosylation of histones” (Nature Communications, 2021)

T1: human HPF1 E284A (human, UniProt Q9NWY4 1-346, E284A)
T1 construct: HPF1, human; not shown: His6, N-terminal, cleaved
T1 sequence (looked up): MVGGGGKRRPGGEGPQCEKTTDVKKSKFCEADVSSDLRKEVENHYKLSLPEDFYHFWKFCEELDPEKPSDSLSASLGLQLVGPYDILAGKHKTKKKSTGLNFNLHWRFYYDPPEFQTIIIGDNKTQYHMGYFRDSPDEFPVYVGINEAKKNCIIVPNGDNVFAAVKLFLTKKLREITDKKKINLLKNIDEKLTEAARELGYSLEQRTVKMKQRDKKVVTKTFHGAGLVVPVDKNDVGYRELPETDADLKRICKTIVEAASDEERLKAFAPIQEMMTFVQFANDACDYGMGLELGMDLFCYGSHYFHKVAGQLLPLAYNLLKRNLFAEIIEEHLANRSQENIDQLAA

T2: human HPF1 F139S (human, UniProt Q9NWY4 1-346, F139S)
T2 construct: HPF1, human; also called HPF F139S; not shown: His6, N-terminal, cleaved
T2 sequence (looked up): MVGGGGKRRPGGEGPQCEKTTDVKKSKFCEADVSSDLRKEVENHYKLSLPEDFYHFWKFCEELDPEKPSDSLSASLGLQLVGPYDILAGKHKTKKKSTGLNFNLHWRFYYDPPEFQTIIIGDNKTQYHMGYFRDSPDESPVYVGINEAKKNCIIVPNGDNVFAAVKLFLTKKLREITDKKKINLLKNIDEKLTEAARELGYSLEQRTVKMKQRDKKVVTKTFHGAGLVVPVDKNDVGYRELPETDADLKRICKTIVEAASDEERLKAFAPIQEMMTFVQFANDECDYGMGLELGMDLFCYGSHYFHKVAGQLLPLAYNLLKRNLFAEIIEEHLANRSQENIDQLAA

T3: human HPF1 R239A (human, UniProt Q9NWY4 1-346, R239A)
T3 construct: HPF1, human; not shown: His6, N-terminal, cleaved
T3 sequence (looked up): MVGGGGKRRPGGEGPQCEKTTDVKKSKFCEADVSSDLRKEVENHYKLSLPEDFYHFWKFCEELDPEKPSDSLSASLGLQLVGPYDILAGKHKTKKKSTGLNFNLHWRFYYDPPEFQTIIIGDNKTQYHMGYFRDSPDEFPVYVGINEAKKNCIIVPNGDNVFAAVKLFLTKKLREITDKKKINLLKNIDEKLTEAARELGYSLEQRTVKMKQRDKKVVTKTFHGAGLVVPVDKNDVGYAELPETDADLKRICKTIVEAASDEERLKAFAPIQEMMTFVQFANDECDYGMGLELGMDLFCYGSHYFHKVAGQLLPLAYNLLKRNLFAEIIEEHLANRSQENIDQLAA

T4: human HPF1 E138K (human, UniProt Q9NWY4 1-346, E138K)
T4 construct: HPF1, human; not shown: His6, N-terminal, cleaved
T4 sequence (looked up): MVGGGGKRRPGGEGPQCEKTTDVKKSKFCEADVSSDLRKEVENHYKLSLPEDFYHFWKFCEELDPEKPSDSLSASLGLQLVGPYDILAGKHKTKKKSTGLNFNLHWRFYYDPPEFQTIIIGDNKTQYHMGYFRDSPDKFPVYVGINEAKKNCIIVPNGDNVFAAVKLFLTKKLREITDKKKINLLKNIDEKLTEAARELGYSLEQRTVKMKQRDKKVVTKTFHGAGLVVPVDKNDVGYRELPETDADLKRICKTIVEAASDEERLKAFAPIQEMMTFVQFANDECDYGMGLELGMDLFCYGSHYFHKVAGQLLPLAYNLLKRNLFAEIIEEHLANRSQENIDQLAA

T5: human HPF1 K307S (human, UniProt Q9NWY4 1-346, K307S)
T5 construct: HPF1, human; not shown: His6, N-terminal, cleaved
T5 sequence (looked up): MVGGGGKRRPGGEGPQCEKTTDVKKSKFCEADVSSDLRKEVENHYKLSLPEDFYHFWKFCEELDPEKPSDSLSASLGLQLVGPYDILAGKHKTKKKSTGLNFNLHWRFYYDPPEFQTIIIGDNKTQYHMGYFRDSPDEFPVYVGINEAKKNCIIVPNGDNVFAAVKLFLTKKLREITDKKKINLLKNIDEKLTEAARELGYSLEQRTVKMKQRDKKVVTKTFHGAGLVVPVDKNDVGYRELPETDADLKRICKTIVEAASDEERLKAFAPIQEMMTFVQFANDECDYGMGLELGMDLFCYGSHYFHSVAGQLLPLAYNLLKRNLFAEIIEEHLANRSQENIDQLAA

T6: human HPF1 F280A (human, UniProt Q9NWY4 1-346, F280A)
T6 construct: HPF1, human; not shown: His6, N-terminal, cleaved
T6 sequence (looked up): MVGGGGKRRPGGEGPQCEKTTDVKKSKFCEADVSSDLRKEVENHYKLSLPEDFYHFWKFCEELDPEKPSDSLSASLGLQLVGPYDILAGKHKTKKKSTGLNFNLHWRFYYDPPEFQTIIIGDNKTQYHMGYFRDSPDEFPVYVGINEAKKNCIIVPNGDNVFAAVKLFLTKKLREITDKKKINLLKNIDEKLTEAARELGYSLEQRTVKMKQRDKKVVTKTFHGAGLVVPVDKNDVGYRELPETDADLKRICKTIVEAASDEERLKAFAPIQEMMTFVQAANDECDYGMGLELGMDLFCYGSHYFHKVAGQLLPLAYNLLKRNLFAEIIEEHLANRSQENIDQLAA

T7: human HPF1 C285H (human, UniProt Q9NWY4 1-346, C285H)
T7 construct: HPF1, human; not shown: His6, N-terminal, cleaved
T7 sequence (looked up): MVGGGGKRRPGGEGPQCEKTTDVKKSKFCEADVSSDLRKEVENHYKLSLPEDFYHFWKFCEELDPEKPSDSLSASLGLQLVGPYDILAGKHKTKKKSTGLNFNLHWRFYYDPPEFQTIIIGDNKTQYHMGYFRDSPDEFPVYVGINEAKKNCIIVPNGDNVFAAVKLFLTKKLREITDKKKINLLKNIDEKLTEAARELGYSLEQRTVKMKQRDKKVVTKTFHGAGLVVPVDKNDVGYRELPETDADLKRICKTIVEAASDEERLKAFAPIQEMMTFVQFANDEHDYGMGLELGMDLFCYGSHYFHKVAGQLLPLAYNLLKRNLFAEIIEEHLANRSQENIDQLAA

T8: human HPF1 K216E (human, UniProt Q9NWY4 1-346, K216E)
T8 construct: HPF1, human; not shown: His6, N-terminal, cleaved
T8 sequence (looked up): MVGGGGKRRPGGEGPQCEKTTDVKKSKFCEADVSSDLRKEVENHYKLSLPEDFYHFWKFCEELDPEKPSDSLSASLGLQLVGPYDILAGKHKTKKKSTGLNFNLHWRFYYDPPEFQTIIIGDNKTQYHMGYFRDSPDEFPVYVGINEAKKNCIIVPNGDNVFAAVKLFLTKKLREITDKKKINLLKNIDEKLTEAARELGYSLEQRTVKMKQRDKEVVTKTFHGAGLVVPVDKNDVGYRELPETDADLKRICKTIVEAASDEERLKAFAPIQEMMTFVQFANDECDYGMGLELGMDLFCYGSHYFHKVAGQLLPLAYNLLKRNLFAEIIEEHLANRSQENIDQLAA

B1: human HPF1 (histone PARylation factor 1), wild-type (natural protein, UniProt Q9NWY4 1-346, looked up)
chain: MVGGGGKRRPGGEGPQCEKTTDVKKSKFCEADVSSDLRKEVENHYKLSLPEDFYHFWKFCEELDPEKPSDSLSASLGLQLVGPYDILAGKHKTKKKSTGLNFNLHWRFYYDPPEFQTIIIGDNKTQYHMGYFRDSPDEFPVYVGINEAKKNCIIVPNGDNVFAAVKLFLTKKLREITDKKKINLLKNIDEKLTEAARELGYSLEQRTVKMKQRDKKVVTKTFHGAGLVVPVDKNDVGYRELPETDADLKRICKTIVEAASDEERLKAFAPIQEMMTFVQFANDECDYGMGLELGMDLFCYGSHYFHKVAGQLLPLAYNLLKRNLFAEIIEEHLANRSQENIDQLAA
notes: HPF1 (C4orf27), human; TEV site ENLYFQG between the His tag and the protein; the tag was removed with TEV protease; also called C4orf27; not shown: His6, N-terminal, cleaved
B2: human PARP1-CAT ΔHD (661-678-GSGSGSGG-787-1014) (domain or fragment)
chain: TKSKLPKPVQDLIKMIFDGSGSGSGGKDPIDVNYEKLKTDIKVVDRDSEEAEIIRKYVKNTHATTHNAYDLEVIDIFKIEREGECQRYKPFKQLHNRRLLWHGSRTTNFAGILSQGLRIAPPEAPVTGYMFGKGIYFADMVSKSANYCHTSQGDPIGLILLGEVALGNMYELKHASHISKLPKGKHSVKGLGKTTPDPSANISLDGVDVPLGTGISSGVNDTSLLYNEYIVYDIAQVNLKYLLKLKFNFKTSLW
notes: PARP1, human, catalytic domain, residues 661-678; linker that replaces residues 679-786 (most of the HD subdomain); PARP1, human, catalytic domain (ART), residues 787-1014; also called CAT△HD; not shown: His6, N-terminal, cleaved

Columns and labels:
Assay in all cases: ITC; HPF1 wild-type or mutant 0.3 or 0.4 mM in the syringe, PARP1 CAT-ΔHD (or full-length CAT) 0.02 mM in the cell; 25 °C; 20 mM Tris-pH 8.0, 150 mM NaCl, 1 mM TCEP, 1 mM MgCl2
Conditions in all cases: both partners purified
[1] = molecular target: B2
[2] = molecular target: B1
human HPF1 E284A = molecular target: T1, human HPF1 E284A
human HPF1 F139S = molecular target: T2, human HPF1 F139S
human HPF1 R239A = molecular target: T3, human HPF1 R239A
human HPF1 E138K = molecular target: T4, human HPF1 E138K
human HPF1 K307S = molecular target: T5, human HPF1 K307S
human HPF1 F280A = molecular target: T6, human HPF1 F280A
human HPF1 C285H = molecular target: T7, human HPF1 C285H
[3] = molecular target: B1; remark: listed apart in the source
human HPF1 K216E = molecular target: T8, human HPF1 K216E

stoichiometry N [1]	Ka [2] [M⁻¹]	Kd [2] [µM]	Kd (human HPF1 E284A) [µM]	Kd (human HPF1 F139S) [µM]	Kd (human HPF1 R239A) [µM]	Kd (human HPF1 E138K) [µM]	Kd (human HPF1 K307S) [µM]	Kd (human HPF1 F280A) [µM]	Kd (human HPF1 C285H) [µM]	Kd [3] [µM]	Kd (human HPF1 K216E) [µM]	Binder
1	–	–	–	–	–	–	–	–	–	–	–	B1
–	758000	~1.3	0.3	2.4	2.4	1.7	9.3	6	28.7	1.5	1.4	B2
